Assay results: EP3653708A1, “ISOMALTULOSE PRODUCTION” (Evonik Operations GmbH, priority 2018, dated 2020)

Key:
[1] = system: OC[C@H]1O[C@@](CO)(O[C@H]2O[C@H](CO)[C@@H](O)[C@H](O)[C@H]2O)[C@@H](O)[C@@H]1O; test: Michaelis-Menten kinetics of the conversion of sucrose into isomaltulose (HPLC, initial velocities); type: biochemical, Serratia plymuthica; conditions: 25 mM calcium acetate pH 5.5, 20 °C, 74.7 nM enzyme, 50-400 mM sucrose
Method: (§1) The enzyme activity assay was carried out in 25 mM calcium acetate pH 5.5 in the presence of 1.16 M sucrose (Sigma-Aldrich, St. Louis, MO) for 16 h at 20 °C.
(§2) The reaction mixture was composed as follows:
(§3) The enzymatic product composition was determined on an Agilent 1200 HPLC instrument (Agilent Technologies, Santa Clara, United States of America) equipped with a Smart line refractive index detector 2300 (Knauer, Berlin, Germany). The sample solution was applied on an XBridge amide column (particle size: 5.0 µm, inner diameter: 4.6, length: 250 mm); (Waters, Milford, MA) at a flow rate of 2 mL/min using a running buffer of 57.8 % acetonitrile, 26.1 % acetone and 16.1 % H2O.
The Michaelis constant (KM), the turnover number (kcat) and the catalytic efficiency (kcat/KM) were determined for isomaltulose. To this end, the enzymatic reaction was carried out as described above at sucrose concentrations of 50 mM, 100 mM, 150 mM, 200 mM, 300 mM and 400 mM and stopped after 10 min, 20 min, 30 min and 40 min by heating the sample at 95 °C for 10 min. To determine the initial velocities at these sucrose concentrations, the isomaltulose yield was analysed via HPLC and plotted against the […]. The slope of the subsequent linear regression corresponded to the initial velocity.
Figure 1 illustrates analysis of the enzyme kinetics and the product spectrum of mutant SmuA. […] The initial velocities for the production of isomaltulose were measured by HPLC at sucrose concentrations of 50 mM, 100 mM, 150 mM, 200 mM, 300 mM, and 400 mM. The enzyme activity assay was carried out in 25 mM calcium acetate buffer pH 5.5 at 20 °C and 74.7 nM of the enzyme. […] Chromatographic conditions: XBridge amide column (particle size: 5.0 µm, inner diameter: 4.6, length: 250 mm); flow rate: 2 mL/min; injection volume: 20 µL; running buffer: 57.8 % acetonitrile, 26.1 % acetone, 16.1 % H2O. Detection via Smartline refractive index detector 2300. The enzyme activity assay was carried out in 25 mM calcium acetate buffer pH 5.5 in the presence of 1.16 M sucrose and 74.4 nM of the recombinant wild type enzyme for 16 h at 20 °C. Table 1: Composition of the isomerization products from sucrose by engineered SmuA variants.

[2] = biological target: Serratia plymuthica sucrose isomerase SmuA variant SmuA(Q181P/D398G/F453Y) (Serratia plymuthica, UniProt D0VX20, D383G/F438Y/Q166P/V450E); test: as above; type: biochemical; conditions: 25 mM calcium acetate pH 5.5, 20 °C, 74.7 nM enzyme, 50-400 mM sucrose
Method: as §1, §2, §3
The Michaelis constant (KM), the turnover number (kcat) and the catalytic efficiency (kcat/KM) were determined for isomaltulose. […] To determine the initial velocities at these sucrose concentrations, the isomaltulose yield was analysed via HPLC and plotted against the respective sucrose concentration. […]
Figure 1 illustrates analysis of the enzyme kinetics and the product spectrum of mutant SmuA. […] The initial velocities for the production of isomaltulose were measured by HPLC at sucrose concentrations of 50 mM, 100 mM, 150 mM, 200 mM, 300 mM, and 400 mM. […]

[3] = other: SmuA(Y219L/T369F/D398G/F453Y)

Compound: Serratia plymuthica sucrose isomerase SmuA variant SmuA(Y219L) (Serratia plymuthica; V450E/Y204L)
- Km ([1]; other: SmuA(Y219L)): 86.64 mM
- kcat ([1]; other: SmuA(Y219L)): 665.77 s⁻¹
- kcat/Km ([1]; other: SmuA(Y219L)): 7.68 mM⁻¹ s⁻¹

Compound: OC[C@H]1O[C@@](CO)(O[C@H]2O[C@H](CO)[C@@H](O)[C@H](O)[C@H]2O)[C@@H](O)[C@@H]1O [sucrose]
- kcat [2]: 122.88 s⁻¹

Compound: Serratia plymuthica sucrose isomerase SmuA variant SmuA(Y219L/D398G) (Serratia plymuthica; D383G/V450E/Y204L)
- Km ([1]; other: SmuA(Y219L/D398G)): 60.16 mM
- kcat ([1]; other: SmuA(Y219L/D398G)): 708.22 s⁻¹
- kcat/Km ([1]; other: SmuA(Y219L/D398G)): 11.77 mM⁻¹ s⁻¹

Compound: Serratia plymuthica sucrose isomerase SmuA variant SmuA(Y219L/T369F/D398G/F453Y) (Serratia plymuthica; D383G/F438Y/T354F/V450E/Y204L)
- Km [1, 3]: 58.16 mM
- kcat [1, 3]: 201.07 s⁻¹
- kcat/Km [1, 3]: 3.46 mM⁻¹ s⁻¹

Compound: Serratia plymuthica sucrose isomerase SmuA, used as wildtype SmuA (UniProt D0VX20 with point mutation V465E, SEQ ID NO:3) (Serratia plymuthica; V450E)
- Km ([1]; other: SmuA): 55.25 mM
- kcat ([1]; other: SmuA): 965.15 s⁻¹
- kcat/Km ([1]; other: SmuA): 17.47 mM⁻¹ s⁻¹
